Measurements reported in IntAct's records for PubMed 17290227.

B1: Docking protein 3 (Homo sapiens), Q7L591 (parent)
chain: MTRGARLRSDARAQLNQLSLDGGTGSGQKGKCEEFPSSLSSVSPGLEAAALLLAVTMDPLETPIKDGILYQQHVKFGKKCWRKVWALLYAGGPSGVARLESWEVRDGGLGAAGDRSAGPGRRGERRVIRLADCVSVLPADGESCPRDTGAFLLTTTERSHLLAAQHRQAWMGPICQLAFPGTGEASSGSTDAQSPKRGLVPMEENSIYSSWQEVGEFPVVVQRTEAATRCQLKGPALLVLGPDAIQLREAKGTQALYSWPYHFLRKFGSDKGVFSFEAGRRCHSGEGLFAFSTPCAPDLCRAVAGAIARQRERLPELTRPQPCPLPRATSLPSLDTPGELREMPPGPEPPTSRKMHLAEPGPQSLPLLLGPEPNDLASGLYASVCKRASGPPGNEHLYENLCVLEASPTLHGGEPEPHEGPGSRSPTTSPIYHNGQDLSWPGPANDSTLEAQYRRLLELDQVEGTGRPDPQAGFKAKLVTLLSRERRKGPAPCDRP
partner: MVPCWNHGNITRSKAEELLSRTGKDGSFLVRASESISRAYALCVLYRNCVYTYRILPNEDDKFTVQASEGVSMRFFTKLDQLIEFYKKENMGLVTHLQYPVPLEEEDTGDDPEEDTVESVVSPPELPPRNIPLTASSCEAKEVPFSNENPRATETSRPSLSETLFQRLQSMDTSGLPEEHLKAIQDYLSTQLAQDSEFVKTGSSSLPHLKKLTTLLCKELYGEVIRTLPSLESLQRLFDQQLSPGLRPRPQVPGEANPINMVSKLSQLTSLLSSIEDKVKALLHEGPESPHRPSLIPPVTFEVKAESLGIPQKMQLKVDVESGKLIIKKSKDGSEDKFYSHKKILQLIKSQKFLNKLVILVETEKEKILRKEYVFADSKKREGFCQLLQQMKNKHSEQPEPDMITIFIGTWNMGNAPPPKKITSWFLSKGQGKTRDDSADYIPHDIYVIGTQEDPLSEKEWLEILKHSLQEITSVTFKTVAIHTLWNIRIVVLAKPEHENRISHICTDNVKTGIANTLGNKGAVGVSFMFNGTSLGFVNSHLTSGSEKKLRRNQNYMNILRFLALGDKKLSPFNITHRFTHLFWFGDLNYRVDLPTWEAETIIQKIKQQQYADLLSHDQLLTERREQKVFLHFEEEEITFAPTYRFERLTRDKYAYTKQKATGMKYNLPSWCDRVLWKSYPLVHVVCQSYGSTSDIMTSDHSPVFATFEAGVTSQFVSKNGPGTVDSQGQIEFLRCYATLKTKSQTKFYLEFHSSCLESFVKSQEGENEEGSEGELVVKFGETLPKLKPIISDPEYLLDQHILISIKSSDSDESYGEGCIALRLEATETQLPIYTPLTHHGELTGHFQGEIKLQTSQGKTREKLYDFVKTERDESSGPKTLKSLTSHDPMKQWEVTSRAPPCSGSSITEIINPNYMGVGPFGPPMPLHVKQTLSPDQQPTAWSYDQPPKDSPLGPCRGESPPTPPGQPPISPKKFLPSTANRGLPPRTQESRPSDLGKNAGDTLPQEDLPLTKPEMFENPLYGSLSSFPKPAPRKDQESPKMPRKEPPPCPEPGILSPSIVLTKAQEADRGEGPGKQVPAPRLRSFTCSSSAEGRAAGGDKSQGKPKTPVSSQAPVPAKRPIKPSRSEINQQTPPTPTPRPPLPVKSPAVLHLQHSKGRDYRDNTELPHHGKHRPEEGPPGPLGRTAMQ

Variants of: B1
Conditions: with ship1_human INPP5D

Variant | effect of a mutation on the interaction
R197F | decreasing interaction
